Data from IntAct's records for PubMed 25281266.

B1: Peregrin (Homo sapiens), P55201 (parent)
chain: MGVDFDVKTFCHNLRATKPPYECPVETCRKVYKSYSGIEYHLYHYDHDNPPPPQQTPLRKHKKKGRQSRPANKQSPSPSEVSQSPGREVMSYAQAQRMVEVDLHGRVHRISIFDNLDVVSEDEEAPEEAPENGSNKENTETPAATPKSGKHKNKEKRKDSNHHHHHNVSASTTPKLPEVVYRELEQDTPDAPPRPTSYYRYIEKSAEELDEEVEYDMDEEDYIWLDIMNERRKTEGVSPIPQEIFEYLMDRLEKESYFESHNKGDPNALVDEDAVCCICNDGECQNSNVILFCDMCNLAVHQECYGVPYIPEGQWLCRRCLQSPSRAVDCALCPNKGGAFKQTDDGRWAHVVCALWIPEVCFANTVFLEPIDSIEHIPPARWKLTCYICKQRGSGACIQCHKANCYTAFHVTCAQQAGLYMKMEPVRETGANGTSFSVRKTAYCDIHTPPGSARRLPALSHSEGEEDEDEEEDEGKGWSSEKVKKAKAKSRIKMKKARKILAEKRAAAPVVSVPCIPPHRLSKITNRLTIQRKSQFMQRLHSYWTLKRQSRNGVPLLRRLQTHLQSQRNCDQVGRDSEDKNWALKEQLKSWQRLRHDLERARLLVELIRKREKLKRETIKVQQIAMEMQLTPFLILLRKTLEQLQEKDTGNIFSEPVPLSEVPDYLDHIKKPMDFFTMKQNLEAYRYLNFDDFEEDFNLIVSNCLKYNAKDTIFYRAAVRLREQGGAVLRQARRQAEKMGIDFETGMHIPHSLAGDEATHHTEDAAEEERLVLLENQKHLPVEEQLKLLLERLDEVNASKQSVGRSRRAKMIKKEMTALRRKLAHQRETGRDGPERHGPSSRGSLTPHPAACDKDGQTDSAAEESSSQETSKGLGPNMSSTPAHEVGRRTSVLFSKKNPKTAGPPKRPGRPPKNRESQMTPSHGGSPVGPPQLPIMSSLRQRKRGRSPRPSSSSDSDSDKSTEDPPMDLPANGFSGGNQPVKKSFLVYRNDCSLPRSSSDSESSSSSSSSAASDRTSTTPSKQGRGKPSFSRGTFPEDSSEDTSGTENEAYSVGTGRGVGHSMVRKSLGRGAGWLSEDEDSPLDALDLVWAKCRGYPSYPALIIDPKMPREGMFHHGVPIPVPPLEVLKLGEQMTQEAREHLYLVLFFDNKRTWQWLPRTKLVPLGVNQDLDKEKMLEGRKSNIRKSVQIAYHRALQHRSKVQGEQSSETSDSD

Variants of: B1
Details: with h2a1_human H2AC11, P0C0S8

Row | effect of a mutation on the interaction | Variant
1 | decreasing interaction | E661A

Variants of: B1
Details: with h4_human H4C16, P62805

Row | effect of a mutation on the interaction | Variant
2 | decreasing interaction | E661A

Variants of: B1
Details: with h2a1_human H2AC11, P0C0S8
Remark: another data set of the same source

Row | effect of a mutation on the interaction | Variant
3 | disrupting interaction | N708A

Variants of: B1
Details: with h4_human H4C16, P62805
Remark: another data set of the same source

Row | effect of a mutation on the interaction | Variant
4 | disrupting interaction | N708A

Variants of: B1
Details: with h2a1_human H2AC11, P0C0S8
Remark: another data set of the same source

Row | effect of a mutation on the interaction | Variant
5 | decreasing interaction | I713A

Variants of: B1
Details: with h4_human H4C16, P62805
Remark: another data set of the same source

Row | effect of a mutation on the interaction | Variant
6 | decreasing interaction | I713A

Variants of: B1
Details: with h2a1_human H2AC11, P0C0S8
Remark: another data set of the same source

Row | effect of a mutation on the interaction | Variant
7 | decreasing interaction | A709S

Variants of: B1
Details: with h4_human H4C16, P62805
Remark: another data set of the same source

Row | effect of a mutation on the interaction | Variant
8 | decreasing interaction | A709S

Variants of: B1
Details: with h2a1_human H2AC11, P0C0S8
Remark: another data set of the same source

Row | effect of a mutation on the interaction | Variant
9 | decreasing interaction | C704A

Variants of: B1
Details: with h4_human H4C16, P62805
Remark: another data set of the same source

Row | effect of a mutation on the interaction | Variant
10 | decreasing interaction | C704A

Variants of: B1
Details: with h2a1_human H2AC11, P0C0S8
Remark: another data set of the same source

Row | effect of a mutation on the interaction | Variant
11 | disrupting interaction | F714A

Variants of: B1
Details: with h4_human H4C16, P62805
Remark: another data set of the same source

Row | effect of a mutation on the interaction | Variant
12 | disrupting interaction | F714A
